Laboratory results as given in article PMC10484735.

B1: Bacteriophage T4 gene 32 protein (gp32), full-length (natural protein)
chain: MFKRKSTAELAAQMAKLNGNKGFSSEDKGEWKLKLDNAGNGQAVIRFLPSKNDEQAPFAILVNHGFKKNGKWYIETCSSTHGDYDSCPVCQYISKNDLYNTDNKEYSLVKRKTSYWANILVVKDPAAPENEGKVFKYRFGKKIWDKINAMIAVDVEMGETPVDVTCPWEGANFVLKVKQVSGFSNYDESKFLNQSAIPNIDDESFQKELFEQMVDLSEMTSKDKFKSFEELNTKFGQVMGTAVMGGAAATAAKKADKVADDLDAFNVDDFNTKTEDDFMSSSSGSSSSADDTDLDDLLNDL

What was measured:
[1] = system: gp32 (WT) (bacteriophage T4); assay: optical tweezers (koff/kon); conditions: 15 pN tension; kon 0.003 nM-1 s-1; cooperative binding to bare ssDNA; Optical tweezers buffer, pH and temperature not in the material (lower salt than AFM; 15 pN for Kd); AFM: 150 mM Na+, 100 uM spermidine, 37 C, 5 min
[2] = system: *II (gp32 N-terminal truncate) (bacteriophage T4); assay: optical tweezers (koff/kon); conditions: 15 pN tension; kon 0.0024 nM-1 s-1, koff 0.11 s-1; Optical tweezers buffer, pH and temperature not in the material (lower salt than AFM; 15 pN for Kd); AFM: 150 mM Na+, 100 uM spermidine, 37 C, 5 min
[3] = biological target: Bacteriophage T4 gene 32 protein (gp32), full-length (bacteriophage T4) (UniProt P03695)
[4] = biological target: Bacteriophage T4 gene 32 protein (gp32), full-length (bacteriophage T4) (UniProt P03695); remark: listed apart in the source
[5] = biological target: Bacteriophage T4 gene 32 protein (gp32), full-length (bacteriophage T4) (UniProt P03695); remark: listed apart in the source

Molecule | Kd [1] | Kd [2] | maximal compaction of 8.1 knt ssDNA at 15 pN (optical tweezers, constant force), WT gp32 against the noncooperative truncate *II that lacks the N-terminal domain [3] | persistence length of the gp32–ssDNA complex (WLC fit of force-extension curves up to 5 pN, optical tweezers; plateau at gp32 ≥25 nM, up to 1 μM) [4] | rate of ssDNA compaction after bimolecular binding (kc, two-step fit of k+1 against gp32 concentration at 15 pN, optical tweezers) [5]
8.1 knt ssDNA (optical tweezers) | 0.001 µM | 0.046 µM | – | – | –
B1 | – | – | 4 fold | 20 nm | 1.5 s^−1
